Experimental data published in the nanobody polyreactivity screen of Harvey et al. (2022).

Assay: yeast display, Sf9 membrane polyspecificity reagent, FACS + sequencing; frameworks hold sequencing errors
Outline: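 After 36–48 hours of galactose induction, yeast (Saccharomyces cerevisiae BJ5465) displaying a synthetic nanobody library were stained at 4 °C for 1 hour with 10% biotinylated, detergent-solubilized Sf9 membrane reagent. Streptavidin microbeads enriched the stained cells before FACS sorting into low and high (top ~1%) gates on anti-HA and streptavidin fluorescence. Each clone's polyreactivity label reflects its gate of origin.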

| Sequence | polyreactivity (PSR sort gate) |
| --- | --- |
| QVHLVESGGGLVQAGGSLRLSCAASGSIFGYNTMGWYRQAPGKERELVAAISYSSGSTHYADSVKGRFTISRVNAKNTVYLQMNSLKPEDTAVYYSTSVRRWSFGYWGQGTQVTVSS | low polyreactivity |
| QVQLVESGGGLVQAGGSLRLSCAASGRTFVGYAMGWYRQAPGKEREFVAAISYRGGRTYYADSVKGRFTISRDNAKNTVYLQMNSLKPEDTAVYYCAAEYRSNHGGVDYWGQGTQVTVSS | high polyreactivity |
| QVQLVESGGGLVQAGGSLRLSCAPSGRIFTRYAMGWYRQAPGKERELVAASSSSGGSTYYADSVKGRFTISRDNAKNTVYLQMTSLKPEDTAVYYCNRGGWYAYYWGQGTQVTVSS | high polyreactivity |
| QVQLVETGGGLVQAGGRLRLSCAASGRIFVYYDMGWSIQAPGKERELVAAITSGGDRTYYADSVKGRFTISRDNAKNTVYLQMNSLKPEDTAVYYCNTYYYPYGYWGQGTQVTVSS | high polyreactivity |
| QVQLVESGGGLVQAGGSLRLSCAASGYTFVGYAMGWYRQAPGKERELVAAITNGGNTNYADSVKGRFTISRDNAKNTVYLQMNSLKPEDTAVYYCATRHSRRYSWIKYYGIGYDYWGQGTQVTVSS | high polyreactivity |
| QVQLVESGGGLVQAGGSLRLSCAASGLTIQNNAMGWYRQAPGKERDLVAVITRIGGSTYYADSVKGRFTISRDYEKNTVYLQMNSLKPEDTAVYYCAAGYRTRRRLHVYWGQGTQVTVSS | high polyreactivity |
| QVQLVESGGGLVQAGGSLRLICDAYVSTFYYYAMGWYRQAPGKVRELVAAISSGGSTNYADSVKGRFTISRDNAKNTVYLQMNILKPEDTAVYYCNAYSYWWLGYDYWGQGTQVTVSS | high polyreactivity |
| QVQLVESGGGLVQAGGSLRLSCAASGSIFDRYAMGWYRQAPGKERELVAAITGSGGSTYYADSVKGRFTISRDNAKNTVYLQMNSLKPEDTAVYYCNARARGAYVRYGYWGQGTQVTVSS | high polyreactivity |
| QVQLVESGGGLVQEGGSLRLSCAASGLISQRNVMGWYRQAPGKERELVARISTSSSGTYYADSVKGRFTISRDNAKNTFYLHMYSLKPEYTAVYYCAVRYRGGAARQIYDYWGQGTQVTVSS | high polyreactivity |
| QVQLVESEGGLVQAGGSLRLSCAASGFIFKYNDMGWYRQAPGKERELVAAIDVRTGLTYYADSVKGRFTISRDNAKTTVYLQMNSLKPEDPAVYYCNADYIQYAYDYWGQGTQVTVSS | high polyreactivity |
| QVQLVESGGGLVQAGGSLRLSCAASGRIFRNYAMGWYRQAPGKERELVPAITRGGSTYYAVSVKGRFSISRDNAKNTVYLQMNSLKPEDNAVYYCNKAWPYSHPVQYHRSRSYDYWGQGTQVTVSS | high polyreactivity |
| QVQLVESGGGLVQEGGSLRLSCAASGFTFRWYAMGWYRQPPRKERELFAVISSGGRTYYADSVKGRFTISRDNAKNTVYLEKNSLKPEDTAVYSCAAEFTDHYPDYWGYPLYDYWGQGTQVTVSS | high polyreactivity |
| QVQLVESGGGLVQAGGSLRLSCAAYGSIFVWYDMGWYRQAPGKERELVATISLSGVSTYYADSVKGRFTISRDNAKNTVYLQMNCLKPEDSAVYYCAADFVEQGEDDYWGQGTQLTVSS | low polyreactivity |
| QVQLVESGGGLVQAGGSLRLSCAASGFTFWRNAMGWYRQAPGKERELVAAISSGTGRTYYADSVKGRFTISRDNAKYTVYLQMNSLKPEDTAVYYCAKVNWRTSYGTSTRDYWGQGTQVTVSS | low polyreactivity |
| QVQLVESGGGLVQAGGSLRLSCAASGSIFSYYAMGWYRQAPGKERELVAAISSGVSSTYYADSVKGRFTISRDNAKNTVYLQMNSLKPEYTAVYYCNADRPYRLNEYWGQGTQVTVSS | high polyreactivity |
| QVQLVESGGGLVQAGGSLRLSCAASGLIFLYNAMGWYRQAPGKERELVAAISRSGGSTYYADSVKGRFTISRDNAKNTVYLQMNSLKPEDTAVYYCNARWPLGVSRGGMGYWGQGTQVTVSS | high polyreactivity |
| QVQLVESGGGLVQAGGSLRLSCAASGIILHYYAMGWYRQAPGKERELVAAISARGGRTYYADSVKGRFTISRDNANNTVYLQMNSLKPEDTAVYYCAAVTVASPTRMDYWGQGTQVTVSS | high polyreactivity |
| QVQLVESGGGLVQAGGSLRLSCAASGRIFYPYAMGWYRQAPGKERELVAAITWSGGSTYYADSVKGRFTISRDNAKNTVYLQMNSLKPEDTAVYYCAKDHSYGAYYYWGQGTQVTVSS | high polyreactivity |
| QVQLVESGGGLVQAGGSLRLSCAASGSIFYFNAMGWYRQAPGKERELVAGISARGGSTYYADSVKGRFTISRDNAKNTVYLQMNSLKPEDTAVYYCAAYGTTRSRKRGFAWWGYDYWGQGTQVTVSS | low polyreactivity |
| QVQLVESGGGLVQAGGSLRLSCAASGLIFRPYAMGWYRQAPGKERELVAGINSGGNTDYADTVKGRFTISRDNAKNTVYLQMNSLKPEDTAVYYCNREYQVTIYDYWGQGSQVTVSS | low polyreactivity |
| QVQLVESGGGLVKAGGSLRLSCAASGSIFPFYAMGSYRQAPGKERELVATISWSGGRTYYADSVKGRFTISRDNAKNTVYLQMNSLKPEDTAVYYCAAGSYHYPNAYYYWGQGTQVTVSS | high polyreactivity |
| QVQLVESGGGLVQAGGSLRLSCAASGNIFTQYGMGWYRQAPGKERELVAAISRRGGSTYYADSVKGRFTISRDNAKNTVYLQMNSLNPEDTAVYYCARRTNRPPWGFEYWGQGTQVTVSS | high polyreactivity |

| Sequence | polyreactivity (PSR sort gate) |
| --- | --- |
| QVQLVESGGGLVQEGGSLRLSCASSGSTFPRYVMGWYRKQTGTESELVAAISSSSGRTFYADSVKGRFTISRDNAKNTVYLQMNSLKPEDTAVYYCAARTSFNVHYWGQGTQVTVSS | high polyreactivity |
| QVQLVESGAGLVQAGGSLRISCAASGITFYRNAMGWYRQAPGKERELVAAITWNGGRTYYADSVKGRFTISRDNAKNTVYLQMNSLNPEDTAVYYCAKRYGSTQSRYDFWGPGTQVTVSS | high polyreactivity |
| QVQLVESGGGLVQAGGSLRLSCAASGSIFYKYTMGWYRPAPGKERELVAAISRSGGRTYYADSVKGRFTISRDNAKNTVYLQMNSLKPEDTAVYYCARDLKIVEYDYWGQGTQVTVSS | low polyreactivity |
| QVQQQESGGGLVQAGGSLRLSCAASGTIFQLTVMGRYRQAPGKERELVASIDYGGNTNYADSVKGRFTISRDNAKYTVYLLMISLKPEDTAVYYCAASSVSWTTHPYWGQGTQVTVSS | low polyreactivity |
| QVQLVESGGGLVQAGGSLRLSCAATGITFYTYAMGWYRQAPGKERELVAAITRSGGSTYYADSVKGRFTISRDNAKNTVYLQMNSLKPEDTAVYYCAADGGYIYWEHLYYSGSDYWGQGTQVTVSS | low polyreactivity |
| QVQLVESGGGLVQAGGSLRLSCAASGITFWYYAMGWYRQAPGKERELVAAITGGDSTNYADSVKGRFTISRDNAKNTVYLQMNSLKPEDTAVYYCNAEGSYEGYDDYWGQGTQVTVSS | high polyreactivity |
| QVQLVESGGGLVQAGGSLRLSCAASGRTFYYYTMGWYRQAPGKERELVAAITWNGGSTYYADSVKGRFTISRDNAKNTVYLQMNSLKPEDTAVYYCNARWTWRYDYWGQGTQVTVSS | high polyreactivity |
| QVQLVESGGGLVQAGGSLRLSCAASGSTFALYGMGWYRQAPGKERELVAAINSGVSTNYADSVKGRFTISRDNAKNTVYLQMNSLKPEDTAVYYCNADYYIAPYDSWGQGTQVTVSS | low polyreactivity |
| QVQIVESGGGLVQAGGSLRLSCAASGRTLYGYAMGWYRQAPGKEREMVASIRSGGSTNYADSVKGRFTISRDNAKNTVYLQMNCLKPEDTAVYYCADDPYYSYGYYHAHGRDVGYWGQGTQVTVSS | low polyreactivity |
| QFQLVESGGGLVQAGGSLRLSCAASGRTFYLYAMGWYRQAPGKERELVASISWNGGSTYYADSVKGLFTISRDNAKNYVYLQMNSLKPEDTAVYYCATDSHRSRLNRPYQLFPAYYYWGQGTQVTVSS | low polyreactivity |
| QVQLVESGGGLVQAGGSLRLSCAASGITIYDNDMGWYRQAPWKERELVAGITRTTVGTYYADSVKGRFTISRDNAKNTVYLQMNSLKPEDTAVYYCAATSLAGYYQFDYWGQGTQVTVSS | low polyreactivity |
| QVQLVESGGGLVQAGGSLRISCAASGRIFFIKAMGWYRQAPGKERELVAAIRRDTRTYYADSVKGRFTISRDNAKNTVYLQMNSLKPEDTAVYYCAADDPWHYDFDYWGQGTQVTVSS | low polyreactivity |
| QVQRVETGRGIVQAGGILRLSCAASGRTFHLYAMGWYRQQPGKERELVADIDGDGGSTYYSDSVKGRFTISRDNAKNTVYLQMNSLKPEDTAVYDCAASRFDYWGQGTQVTVSS | low polyreactivity |
| QVQIVESGGGLVQAGGSLRLSCAASGRTFKYYAMGWYRPAPGKERELVAAISYSGGSTYYADSVKGRFTISRDNAKNTVYLQMNSLKPEDTAVYYCAARFTRYYSGCDQKYDYWGQGTQVTVSS | high polyreactivity |
| QVQLVESGGGLVQAGGSLRLSCAASGRTFKYNAMGWYRQAPGKERELVAVISYDGSTYYADSVKGRFTISRDNAKNTVYLQMNSLKPEDTAVYYCAARYLDVRPYYYWGQGTQVTVSS | high polyreactivity |
| QVQLVESGVGLVQAGGSLRLSCAASGGTFVTYAMGWFSQAPGKERELVAAISATDGRTYNADSVKGRFTISRDNAKNTVYLQMNSLKPADTAVYYCAAVGPYTQSRGKYSNLFYWGQGTQVTVSS | high polyreactivity |
| QVQLVESGGGLVQAGGSLRLTCAASGRILGYYAMGWYRPAPGKERELVAAITYSGGSTYYADSVKGRFSISRDNAKNTVYLQMNILKPEDTAVYYCAADKLLLGLYGSTWNDYWGQGTQVTVSS | low polyreactivity |
| QVQLVESGGGLVQAGGSLRLSCAASGRIFPYYAMGWYRQAPGKERELVASIRYSAGNTYYADSVKGRFTISRDNAKNTVYLQMNSLKPEDTAVYYCAKLYRSYTIRPVWGRYDYWGQGTQVTVSS | low polyreactivity |
| QVQLVESGGGLVQAGGSLRLSSAASGRTFNVNAMGLYRQAPGKERELVAAIDFSDGRTYYADSVKGRFTISRDNAKNTVYLQMNSLKPADTAVYYCARSFRVGKTWYDYWGQGTQVTVSS | high polyreactivity |
| QEHLVESGGGLVQAGGTLRLSCAASGGTFYVNDMGWYRQPPGKESELVATITYSGTSTYYADSVTGSFTISRDNAKNTVYLQMNSLKPEDTAVYYGATDVLLYLEPVNLDYCGQGTQVTVSS | low polyreactivity |
| QVQLVESGGGLVQAGGSLRLSCAASGFTFYYYTMGWYRQAPGKERELVAVITGGGGSTYYADSVKGRFTISRDNAKNTVYLQMNSLKPEDTAVYYCAAKFYGWYRQRGYDYWGQGTQVTVSS | high polyreactivity |
